This note sets out measurements from the RNAGym collection of RNA variant scans (doi:10.7554/elife.80360).

B1: HDV Ribozyme (parent)
chain: GGCCGGCAUGGUCCCAGCCUCCUCGCUGGCGCCGGCUGGGCAACAUUCCGAGGGGACCGUCCCCUCGGUAAUGGCGAAUGGGACCCA

In this series the parent is B1. The series is described as follows: self-cleavage, relative activity (ratio to wild type); higher = more cleavage; co-transcriptional.
For GGCCGGCAUGGUCCCAGCCUCCUCGCUGGCGCCGGCUGGGCAACAAUCCGAGGUGACCGUCCCCUCGGUAAUGGCGAAUGGGACCCA [U46A G54U], the self-cleavage came to 0.684. To GGCCGGCAUGGUCCCAGCCUCCUCGCUGGCGCCGGCUGGGCAACAAUCCGAGGGGACCGUCCCCUCGGUAAUGGUGAAUGGGACCCA [U46A C75U] belongs 0.0665; to GGCCGGCAUGGUCCCAGCCUCCUCGCUGGCGCCGGCUGGGCAACACUCCGAGGGGACCGUCCCCUCGGUAAUGGCGAAUGGGACCCG [U46C A87G], 0.727. Consider GGCCGGCAUGGUCCCAGCCUCCUCGCUGGCGCCGGCUGGGCAACACUCCGAGGGGACCGUACCCUCGGUAAUGGCGAAUGGGACCCA [U46C C61A], for which the self-cleavage is 1.09. Regarding GGCCGGCAUGGUCCCAGCCUCCUCGCUGGCGCCGGCUGGGCAACAAUCCGAGGGGACCGUCCCCUCGGUAAUGGCUAAUGGGACCCA [U46A G76U], the self-cleavage was found to be 0.954. With GGCCGGCAUGGUCCCAGCCUCCUCGCUGGCGCCGGCUGGGCAACAAUCCGAGGGGACCGUCCCCUCGGUAAUGGCGAAUGGGACUCA [U46A C85U], the self-cleavage is 0.675. For the variant GGCCGGCAUGGUCCCAGCCUCCUCGCUGGCGCCGGCUGGGCAACACUCCGAGGGGAACGUCCCCUCGGUAAUGGCGAAUGGGACCCA [U46C C57A], the self-cleavage is 1.22. To GGCCGGCAUGGUCCCAGCCUCCUCGCUGGCGCCGGCUGGGCAACAACCCGAGGGGACCGUCCCCUCGGUAAUGGCGAAUGGGACCCA [U46A U47C] belongs 0.532; to GGCCGGCAUGGUCCCAGCCUCCUCGCUGGCGCCGGCUGGGCAACAAACCGAGGGGACCGUCCCCUCGGUAAUGGCGAAUGGGACCCA [U46A U47A], 0.867; to GGCCGGCAUGGUCCCAGCCUCCUCGCUGGCGCCGGCUGGGCAACACUCCGAGGGGGCCGUCCCCUCGGUAAUGGCGAAUGGGACCCA [U46C A56G], 0.643. For GGCCGGCAUGGUCCCAGCCUCCUCGCUGGCGCCGGCUGGGCAACACUCCGAGGGGACCGUCCACUCGGUAAUGGCGAAUGGGACCCA [U46C C63A], the self-cleavage came out at 0.718. To GGCCGGCAUGGUCCCAGCCUCCUCGCUGGCGCCGGCUGGGCAACAAUCCGAGGGGACCGUCCCCUCGGAAAUGGCGAAUGGGACCCA [U46A U69A] belongs 1.08; to GGCCGGCAUGGUCCCAGCCUCCUCGCUGGCGCCGGCUGGGCAACAAUCCGAGGGGACCGUCCCCUCGGGAAUGGCGAAUGGGACCCA [U46A U69G], 0.793; to GGCCGGCAUGGUCCCAGCCUCCUCGCUGGCGCCGGCUGGGCAACAAUCCGAGGGGACCGUCCCCUCGGUAAUGGCGAAUGUGACCCA [U46A G81U], 0.271. Regarding GGCCGGCAUGGUCCCAGCCUCCUCGCUGGCGCCGGCUGGGCAACAAUCCGAGAGGACCGUCCCCUCGGUAAUGGCGAAUGGGACCCA [U46A G53A], the self-cleavage is 0.741.

Regarding GGCCGGCAUGGUCCCAGCCUCCUCGCUGGCGCCGGCUGGGCAACAAUCCGAGCGGACCGUCCCCUCGGUAAUGGCGAAUGGGACCCA [U46A G53C], the self-cleavage came to 0.877. The value for GGCCGGCAUGGUCCCAGCCUCCUCGCUGGCGCCGGCUGGGCAACACUCAGAGGGGACCGUCCCCUCGGUAAUGGCGAAUGGGACCCA [U46C C49A] was 0.54; that for GGCCGGCAUGGUCCCAGCCUCCUCGCUGGCGCCGGCUGGGCAACAAUCCGAGGGGACCGUCCCCUCAGUAAUGGCGAAUGGGACCCA [U46A G67A] was 0.703. As to GGCCGGCAUGGUCCCAGCCUCCUCGCUGGCGCCGGCUGGGCAACACUCCGAGGGGACCGUCCCCUCGGUAAUGGCGAAUGGGGCCCA [U46C A83G], the self-cleavage worked out at 0.402.

As for GGCCGGCAUGGUCCCAGCCUCCUCGCUGGCGCCGGCUGGGCAACAAUCCGAGGGGACCGUCCCCUCGGUAAUGGCGAAUGGUACCCA [U46A G82U], the self-cleavage worked out at 0.119. With GGCCGGCAUGGUCCCAGCCUCCUCGCUGGCGCCGGCUGGGCAACAAUCCGAGGGGACCGUCCCCUCGGUAAUGACGAAUGGGACCCA [U46A G74A], the self-cleavage came out at 0.519. With GGCCGGCAUGGUCCCAGCCUCCUCGCUGGCGCCGGCUGGGCAACAAUCCGAGGGGACCGUCCCCUCGGUAAUGGCGAAUGGGACCAA [U46A C86A], the self-cleavage was 0.958. On to GGCCGGCAUGGUCCCAGCCUCCUCGCUGGCGCCGGCUGGGCAACAAUCCGAGGGGACCGUCCCCUCGGUAAUGGCGAACGGGACCCA [U46A U79C], for which the self-cleavage was found to be 0.215. As to GGCCGGCAUGGUCCCAGCCUCCUCGCUGGCGCCGGCUGGGCAACAAUCCGAAGGGACCGUCCCCUCGGUAAUGGCGAAUGGGACCCA [U46A G52A], the self-cleavage was found to be 0.776. In the case of GGCCGGCAUGGUCCCAGCCUCCUCGCUGGCGCCGGCUGGGCAACAAUCCGAUGGGACCGUCCCCUCGGUAAUGGCGAAUGGGACCCA [U46A G52U], the self-cleavage came to 0.596. For the variant GGCCGGCAUGGUCCCAGCCUCCUCGCUGGCGCCGGCUGGGCAACACUCCGAGGGGACUGUCCCCUCGGUAAUGGCGAAUGGGACCCA [U46C C58U], the self-cleavage amounted to 0.7.

As to GGCCGGCAUGGUCCCAGCCUCCUCGCUGGCGCCGGCUGGGCAACACUUCGAGGGGACCGUCCCCUCGGUAAUGGCGAAUGGGACCCA [U46C C48U], the self-cleavage is 0.655. To GGCCGGCAUGGUCCCAGCCUCCUCGCUGGCGCCGGCUGGGCAACAAUCCGAGGGGACCGCCCCCUCGGUAAUGGCGAAUGGGACCCA [U46A U60C] belongs 0.752; to GGCCGGCAUGGUCCCAGCCUCCUCGCUGGCGCCGGCUGGGCAACAAUCCGAGGGGACCGGCCCCUCGGUAAUGGCGAAUGGGACCCA [U46A U60G], 0.939.

With GGCCGGCAUGGUCCCAGCCUCCUCGCUGGCGCCGGCUGGGCAACAAUCCGAGGGGACCGUCCCCUCGCUAAUGGCGAAUGGGACCCA [U46A G68C], the self-cleavage is 0.633. In the case of GGCCGGCAUGGUCCCAGCCUCCUCGCUGGCGCCGGCUGGGCAACAAUCCGAGGGGACCAUCCCCUCGGUAAUGGCGAAUGGGACCCA [U46A G59A], the self-cleavage was determined as 0.78. To GGCCGGCAUGGUCCCAGCCUCCUCGCUGGCGCCGGCUGGGCAACAAUCCGAGGGGACCGUCCCCUCGGUAAUGGCGAAUGGGAGCCA [U46A C84G] belongs 0.68.
